Results from patent US20210388068A1 (UNIVERSITY OF MASSACHUSETTS, published 2021).

T1: N-terminal adhesin domain of CfaE fused to maltose-binding protein (MBP-CfaE-N) (enterotoxigenic Escherichia coli (ETEC), UniProt P25734 23-200)
T1 construct: domain: N-terminal adhesin domain; expressed in SHuffle T7 E. coli and purified on amylose resin; also called recombinant CfaE-N; wild-type CfaE; not shown: donor strand complement included as in Poole et al. 2007
T1 sequence (looked up): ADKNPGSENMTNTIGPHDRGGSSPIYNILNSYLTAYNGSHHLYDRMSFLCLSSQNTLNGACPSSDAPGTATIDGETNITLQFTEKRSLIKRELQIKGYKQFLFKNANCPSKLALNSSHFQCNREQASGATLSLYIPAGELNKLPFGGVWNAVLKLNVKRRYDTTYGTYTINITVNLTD

B1: anti-CfaE HuMab 68-48 (antibody, human IgG1, V domains shown)
VH: QVQLQQWGAGLLKPSETLSLTCAVYGGSFSGYSWSWIRQSPGKGLEWIGEIYHSGSTNYNPSLKSRVTISGDTSKNQFSLKLSSVTAADTAVYYCARENLQGYYYYGMDVWGQGTTVTVSS
VL: AIQLTQSPSSLSASVGDRVTITCRASQGISSSLAWYQQKPGKAPKLLIYDASSLESGVPSRFSGSGSGTDFTLTISSLQPEDFATYYCQQFNSYPRTFGQGTKVEIK
notes: also called 068-48
B2: anti-CfaE HuMab 68-61 (antibody, human IgG1, V domains shown)
VH: QVQLVQSGAEVKNPGSSVRVSCEASGGTFSSFAISWVRQAPGQGLEWMGRIIPILDIVKYAQRFQGRVTISADKSTSTAYMELSSLRSEGTAVYYCARDDIAGSDFDIWGQGTMVTVSS
VL: DIQMTQSPSSLSASVGDRVTITCRASQGISSWLAWYQQKPEKAPKSLIYAASSLQSGVPSRFSGSGSGTDFTLTISSLQPEDFATYYCQQYTSYPYTFGQGTKLEIK
notes: also called 068-61
B3: anti-CfaE HuMab 68-90 (antibody, human IgG1, V domains shown)
VH: QVQLQQWGAGLLKPSETLSLTCAVYGGSFSAYYWSWIRQPPGKGLEWIGEINHSGNTNYNPSLESRVTISVDTSKNQVSLKQSSVTAADTAVYYCARNWGPNAFDIWGRGTMVTVSS
VL: DIQMTQSPSSVSASVGDRVTITCRASQDITSWLVWYQHKPGKAPKLLIYAASSLQSGVPSRFSGSGSGTDFTLTISSLQPEDFATYYCQQANIFPYTFGQGTKLEIK
notes: also called 068-90

Columns and labels:
[1] = target: T1, N-terminal adhesin domain of CfaE fused …; assay: ELISA on plate-bound MBP-CfaE-N, anti-human IgG Fc-AP, OD405
Source text: FIG. 1A is a graph showing concentration-dependent binding of anti-CfaE antibodies as measured by ELISA. IgG bound to immobilized recombinant CfaE-N was detected with an anti-human IgG Fc-chain-specific alkaline phosphatase-conjugated antibody. Error bars represent the range in OD values observed in two independent experiments. The binding curves of the ten anti-CfaE antibodies are superimposed.
(§1) For binding activity of purified HuMAbs against CfaE, 96-well plates (Nunc) were coated overnight at 4° C. with 2 μg/mL of purified MBP-CfaE-N. Plates were blocked with 1% BSA+0.05% Tween 20 in PBS. Purified HuMabs were diluted in 1×PBS+0.1% Tween 20 and added to plates for 1 hour. Plates were stained with alkaline phosphatase-conjugated goat anti-human IgG Fcγ (Jackson ImmunoResearch Laboratories) (1:1,000) for 1 hour and developed using p-nitrophenyl phosphate (ThermoFisher Scientific).

[2] = target: T2, MBP-CfaE-N Tyr183Ala mutant (enterotoxigenic Escherichia coli); assay: ELISA on plate-bound MBP-CfaE-N Tyr183Ala mutant, OD405
T2 construct: tag;N-terminal adhesin domain; not in the list MOLECULES; also called Y183A
Description: as §1
To define the antibody-binding epitope, putative antibody-antigen interaction models were established based on a previously resolved CfaE structure (PDB ID 2Hb0) and the HuMab antibody sequences using an antibody modeling program, BioLuminate (Schrodinger). This software suite develops models of antibody structures from their sequences, followed by computational docking to identify high-confidence antibody-antigen complex models. Based on these models, the software identified potential residues critical for binding interaction. The effect of these residues on the binding activity of the HuMAbs was analyzed by experimental alanine scanning followed by ELISA. […] The R67A mutation eliminated binding activity of HuMab 68-51 and 68-97 (FIG. 3B), while the Y183A mutation affected binding activity of HuMab 68-51, 68-97, 68-90, 67-102, and 840-53 (FIG. 3E). […]

[3] = target: T1, N-terminal adhesin domain of CfaE fused …; assay: ELISA on plate-bound wild-type MBP-CfaE-N, OD405
Description: as §1
To define the antibody-binding epitope, putative antibody-antigen interaction models were established based on a previously resolved CfaE structure (PDB ID 2Hb0) and the HuMab antibody sequences using an antibody modeling program, BioLuminate (Schrodinger). This software suite develops models of antibody structures from their sequences, followed by computational docking to identify high-confidence antibody-antigen complex models. Based on these models, the software identified potential residues critical for binding interaction. The effect of these residues on the binding activity of the HuMAbs was analyzed by experimental alanine scanning followed by ELISA. […] The R67A mutation eliminated binding activity of HuMab 68-51 and 68-97 (FIG. 3B), while the Y183A mutation affected binding activity of HuMab 68-51, 68-97, 68-90, 67-102, and 840-53 (FIG. 3E). […] T91A mutation eliminated binding activity of HuMAb 840-53 and reduced binding activities of HuMAbs 68-51, 68-61, 840-53 and 68-48 (FIG. 3C). N127A mutation eliminated binding activity of HuMAb 68-61 and reduced binding of HuMAbs 68-48 and 68-6 (FIG. 3F). All mutations were found on the surface exposed loops of the N-terminal domain of the CfaE (FIG. 3G). No residues involved in the binding of MAb 68-75 to CfaE were identified.

Binder | EC50 (read off the curve) [1] [µg/mL] | EC50 (read off the curve) [2] [µg/mL] | EC50 (read off the curve) [3] [µg/mL]
B1 | ~0.03 | ~0.01 | ~0.03
B2 | ~0.03 | ~0.01 | ~0.03
B3 | ~0.03 | – | ~0.03
